These results are taken from the array DNA melting data of Ke et al..

A short description of the series: melting temperature; melt of duplexes. The conditions noted are these: sodium 0.0675 M; strand 1 µM.
With “CGACGTGCGAAATGTGCTG+CAGCACATAGGGCACGTCG ((((((((...((((((((+))))))))...))))))))”, the midpoint of thermal melting (Tm) was found to be 49.9 °C.

Take “CGACGTGCGAGATGTGCTG+CAGCACATCGCGCACGTCG (((((((((.(((((((((+))))))))).)))))))))”: the midpoint of thermal melting (Tm) came out at 62.5 °C.

As to “CGACGTGCTTTATGTGCTG+CAGCACATTACGCACGTCG ((((((((.(.((((((((+)))))))).).))))))))”, the midpoint of thermal melting (Tm) worked out at 48.7 °C. As to “CGACGTGCTTCATGTGCTG+CAGCACATCCCGCACGTCG ((((((((...((((((((+))))))))...))))))))”, the Tm is 47.5 °C. Next, “CGACGTGCTGTATGTGCTG+CAGCACATCACGCACGTCG ((((((((...((((((((+))))))))...))))))))”: 50.7 °C; “CGACGTGCTTCATGTGCTG+CAGCACATAATGCACGTCG ((((((((.(.((((((((+)))))))).).))))))))”: 50.4 °C; “CGACGTGCCAGATGTGCTG+CAGCACATGCAGCACGTCG ((((((((...((((((((+))))))))...))))))))”: 51.2 °C. “CGACGTGCCCCATGTGCTG+CAGCACATGGTGCACGTCG ((((((((.((((((((((+)))))))))).))))))))”: the Tm is 56.7 °C.

In the case of “CGACGTGCAATATGTGCTG+CAGCACATTAAGCACGTCG ((((((((...((((((((+))))))))...))))))))”, the Tm came to 50.1 °C. With “CGACGTGCTCGATGTGCTG+CAGCACATTGAGCACGTCG ((((((((((.((((((((+)))))))).))))))))))”, the Tm came to 60.7 °C. For “CGACGTGCGCTATGTGCTG+CAGCACATCCCGCACGTCG (((((((((..((((((((+))))))))..)))))))))”, the Tm worked out at 52.1 °C.

With “CGACGTGCACTATGTGCTG+CAGCACATCTAGCACGTCG ((((((((...((((((((+))))))))...))))))))”, the melting temperature (Tm) amounted to 42.4 °C. Regarding “CGACGTGCGGAATGTGCTG+CAGCACATCGTGCACGTCG ((((((((...((((((((+))))))))...))))))))”, the melting temperature (Tm) stood at 46.7 °C.

For the substance “CGACGTGCCCCATGTGCTG+CAGCACATAAAGCACGTCG ((((((((...((((((((+))))))))...))))))))”, the melting temperature (Tm) is 47.7 °C. For “CGACGTGCGAGATGTGCTG+CAGCACATTTGGCACGTCG ((((((((.(.((((((((+)))))))).).))))))))”, the Tm stood at 52.5 °C. On to “CGACGTGCCGGATGTGCTG+CAGCACATTACGCACGTCG ((((((((...((((((((+))))))))...))))))))”, for which the Tm is 50.1 °C.

Consider “CGACGTGCTGGATGTGCTG+CAGCACATCTCGCACGTCG ((((((((..(((((((((+)))))))))..))))))))”, for which the Tm came to 55.3 °C. “CGACGTGCCAAATGTGCTG+CAGCACATGAGGCACGTCG (((((((((..((((((((+))))))))..)))))))))”: the Tm was 57.3 °C.

Regarding “CGACGTGCGTCATGTGCTG+CAGCACATTGTGCACGTCG ((((((((...((((((((+))))))))...))))))))”, the Tm was found to be 46.3 °C. As for “CGACGTGCGTCATGTGCTG+CAGCACATACAGCACGTCG ((((((((...((((((((+))))))))...))))))))”, the figure is 53 °C; as for “CGACGTGCTCTATGTGCTG+CAGCACATAAGGCACGTCG ((((((((..(((((((((+)))))))))..))))))))”, 52.2 °C. Next, “CGACGTGCCCTATGTGCTG+CAGCACATCCAGCACGTCG ((((((((...((((((((+))))))))...))))))))”: 47.7 °C; “CGACGTGCAGCATGTGCTG+CAGCACATACGGCACGTCG ((((((((.(.((((((((+)))))))).).))))))))”: 49.3 °C; “CGACGTGCTAAATGTGCTG+CAGCACATACAGCACGTCG (((((((((..((((((((+))))))))..)))))))))”: 51.9 °C.

Turning to “CGACGTGCGTTATGTGCTG+CAGCACATTTCGCACGTCG (((((((((..((((((((+))))))))..)))))))))”, the melting temperature (Tm) was 54.4 °C. With “CGACGTGCTGTATGTGCTG+CAGCACATGCGGCACGTCG ((((((((.(.((((((((+)))))))).).))))))))”, the Tm turned out to be 55.7 °C. As for “CGACGTGCTCAATGTGCTG+CAGCACATGACGCACGTCG ((((((((...((((((((+))))))))...))))))))”, the figure is 48.7 °C. As for “CGACGTGCCAAATGTGCTG+CAGCACATGCTGCACGTCG ((((((((...((((((((+))))))))...))))))))”, the figure is 48.2 °C. As for “CGACGTGCGTCATGTGCTG+CAGCACATGATGCACGTCG ((((((((.((((((((((+)))))))))).))))))))”, the Tm worked out at 61.1 °C. Next, “CGACGTGCACCATGTGCTG+CAGCACATAGCGCACGTCG ((((((((.(.((((((((+)))))))).).))))))))”: 46.1 °C. For the substance “CGACGTGCAATATGTGCTG+CAGCACATCCAGCACGTCG ((((((((...((((((((+))))))))...))))))))”, the Tm was 48.1 °C.

On to “CGACGTGCGTTATGTGCTG+CAGCACATAAAGCACGTCG ((((((((.((((((((((+)))))))))).))))))))”, for which the midpoint of thermal melting (Tm) came to 56 °C. On to “CGACGTGCTTTATGTGCTG+CAGCACATCTCGCACGTCG ((((((((...((((((((+))))))))...))))))))”, for which the Tm was 46.5 °C. As for “CGACGTGCATCATGTGCTG+CAGCACATGGAGCACGTCG ((((((((..(((((((((+)))))))))..))))))))”, the figure is 55.5 °C; as for “CGACGTGCTTGATGTGCTG+CAGCACATAAAGCACGTCG ((((((((((.((((((((+)))))))).))))))))))”, 57.7 °C; as for “CGACGTGCACAATGTGCTG+CAGCACATTAAGCACGTCG ((((((((..(((((((((+)))))))))..))))))))”, 49 °C. Next, “CGACGTGCATCATGTGCTG+CAGCACATACCGCACGTCG ((((((((...((((((((+))))))))...))))))))”: 46.6 °C. Consider “CGACGTGCACCATGTGCTG+CAGCACATGTTGCACGTCG (((((((((.(((((((((+))))))))).)))))))))”, for which the Tm came out at 55 °C.

“CGACGTGCGCGATGTGCTG+CAGCACATAAAGCACGTCG ((((((((...((((((((+))))))))...))))))))”: the Tm amounted to 54 °C.

On to “CGACGTGCAAGATGTGCTG+CAGCACATCGCGCACGTCG ((((((((..(((((((((+)))))))))..))))))))”, for which the melting temperature (Tm) was found to be 58.4 °C. As for “CGACGTGCTTGATGTGCTG+CAGCACATTCAGCACGTCG (((((((((..((((((((+))))))))..)))))))))”, the figure is 51.9 °C; as for “CGACGTGCTAAATGTGCTG+CAGCACATCTGGCACGTCG ((((((((.(.((((((((+)))))))).).))))))))”, 51.1 °C; as for “CGACGTGCATGATGTGCTG+CAGCACATGCGGCACGTCG ((((((((...((((((((+))))))))...))))))))”, 48 °C. “CGACGTGCGGAATGTGCTG+CAGCACATGTAGCACGTCG ((((((((...((((((((+))))))))...))))))))”: the melting temperature (Tm) came out at 60.4 °C. As for “CGACGTGCCTTATGTGCTG+CAGCACATGACGCACGTCG ((((((((.(.((((((((+)))))))).).))))))))”, the figure is 45.4 °C; as for “CGACGTGCCGCATGTGCTG+CAGCACATGTGGCACGTCG (((((((((.(((((((((+))))))))).)))))))))”, 62.9 °C.

On to “CGACGTGCGGAATGTGCTG+CAGCACATTATGCACGTCG ((((((((..(((((((((+)))))))))..))))))))”, for which the Tm worked out at 55.4 °C.

Usually Tm stands for the temperature at which the thermal transition is half complete.
